Results published in patent publication US20190010247A1 (MINOMIC INTERNATIONAL, published 2019).
Values belong to the binder of their own block, whether it stands above or below them.

What was measured:
[1] = target: T1, recombinant human GPC-1 (NS0-produced glypican-1 antigen) (human, UniProt P35052 24-530); test: western blot, three-antibody detection
T1 construct: Bought recombinant protein; also called recombinant NS0 GPC-1; NS0-produced recombinant GPC-1 antigen
T1 sequence (looked up): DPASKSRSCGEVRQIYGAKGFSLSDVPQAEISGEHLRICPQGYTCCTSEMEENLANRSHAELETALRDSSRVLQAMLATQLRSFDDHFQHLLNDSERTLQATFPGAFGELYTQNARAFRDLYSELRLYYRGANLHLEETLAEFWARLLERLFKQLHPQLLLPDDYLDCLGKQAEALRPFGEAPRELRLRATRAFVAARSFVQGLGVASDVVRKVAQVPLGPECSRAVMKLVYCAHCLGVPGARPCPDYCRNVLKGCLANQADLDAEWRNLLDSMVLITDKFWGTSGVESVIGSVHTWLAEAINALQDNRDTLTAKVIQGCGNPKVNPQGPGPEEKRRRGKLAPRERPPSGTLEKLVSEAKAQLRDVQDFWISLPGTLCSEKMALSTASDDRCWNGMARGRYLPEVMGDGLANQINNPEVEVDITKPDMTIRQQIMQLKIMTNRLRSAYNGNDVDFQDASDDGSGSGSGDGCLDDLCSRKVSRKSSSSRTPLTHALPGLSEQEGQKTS

[2] = target: T2, GPC-1 (MIL-38 antigen) expressed by human cancer cell lines DU-145, T-24, PANC-1 and MDA-MB-231 (human, UniProt P35052 24-530); test: binding to DU-145 cells, graded in Table 4
T2 construct: whole, on cells; also called GPC-1 on the cell surface
T2 sequence (looked up): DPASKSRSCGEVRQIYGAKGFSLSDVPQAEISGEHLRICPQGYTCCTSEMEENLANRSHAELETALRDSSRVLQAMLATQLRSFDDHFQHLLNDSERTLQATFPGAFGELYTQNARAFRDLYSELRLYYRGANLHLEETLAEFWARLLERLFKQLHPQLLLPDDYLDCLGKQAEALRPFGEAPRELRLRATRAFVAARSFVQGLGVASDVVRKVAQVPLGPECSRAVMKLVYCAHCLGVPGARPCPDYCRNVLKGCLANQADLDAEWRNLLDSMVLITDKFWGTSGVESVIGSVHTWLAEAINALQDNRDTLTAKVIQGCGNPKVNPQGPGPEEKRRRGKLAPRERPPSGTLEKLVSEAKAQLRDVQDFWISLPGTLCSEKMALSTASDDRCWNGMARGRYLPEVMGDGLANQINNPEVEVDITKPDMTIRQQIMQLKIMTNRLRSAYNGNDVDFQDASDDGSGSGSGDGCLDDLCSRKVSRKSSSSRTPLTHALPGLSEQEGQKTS

[3] = target: T1, recombinant human GPC-1 (NS0-produced …); test: direct binding ELISA, GPC-1 coated
[4] = target: T2, GPC-1 (MIL-38 antigen) expressed by …; test: flow cytometry on DU-145 cells (FIG. 10)
[5] = target: T1, recombinant human GPC-1 (NS0-produced …); test: western blot, anti-mouse HRP detection
Experimental: Briefly, after transfer membranes were blocked with 5% skim milk in PBS-Tween (0.1%) for 2 h at room temperature. Primary antibodies (1 μg/ml in 5% skim milk—PBS-Tween (0.1%) were applied and incubated overnight at 4° C. After washing (3×10 min PBS-Tween (0.1%)) membranes were incubated with secondary antibody (1:2000 sheep-anti-mouse HRP-labelled in 5% skim milk—PBS-Tween (0.1%)). After washing (3×10 min PBS-Tween (0.1%)) antigen was detected by using ECL detection kit (Biorad) and imaging with LAS4000 mini (GE Life Science).

[6] = target: T2, GPC-1 (MIL-38 antigen) expressed by …; test: flow cytometry, CY5-labelled scFv on DU-145 cells

binding result [1]: binds
binding result [2]: binds
B1: chimeric MIL-38 antibody (mouse VH-human CH1-CH3 heavy chain, mouse VK-human CK light chain) (antibody)
heavy: not shown
light: DIQMTQSPASLSASVGETVTITCRASGNVHNYLAWYQQKQGKSPQLLVYTAKTLADGVPSRFSGSGSGTQYSLKINSLQPEDFGTYYCQHFWSNPWTFGGGTKLEIKRTVAAPSVFIFPPSDEQLKSGTASVVCLLNNFYPREAKVQWKVDNALQSGNSQESVTEQDSKDSTYSLSSTLTLSKADYEKHKVYACEVTHQGLSSPVTKSFNRGEC
notes: Human IgG1 kappa constant regions; also called chMIL-38; MIL-38 chimeric antibody

binding result [3]: binds
binding result [4]: binds
B2: chimeric MIL-38 DOTA conjugate (antibody, human IgG1, kappa)
heavy: not shown
light: DIQMTQSPASLSASVGETVTITCRASGNVHNYLAWYQQKQGKSPQLLVYTAKTLADGVPSRFSGSGSGTQYSLKINSLQPEDFGTYYCQHFWSNPWTFGGGTKLEIKRTVAAPSVFIFPPSDEQLKSGTASVVCLLNNFYPREAKVQWKVDNALQSGNSQESVTEQDSKDSTYSLSSTLTLSKADYEKHKVYACEVTHQGLSSPVTKSFNRGEC
modifications: p-SCN-Bn-DOTA conjugated; sites not stated; p-SCN-Bn-DOTA conjugated; 4.3, 4.6 or 7.5 DOTA per MAb for 5, 10 or 20 fold excess; sites not stated
notes: also called chMIL-38 DOTA; DOTA-cMIL-38

binding result [5]: binds
binding result [2]: binds
B3: murine MIL-38 monoclonal antibody, AM4 population, clone 1F5 (hybridoma CBA20140026) (antibody, mouse IgG1, kappa)
heavy: QIQLVQSGPELKKPGETVKISCKASGYAFTDYSMNWVKQAPGKGLRWMGWINTETGEPTYTDDFKGRFAFSLETSASTAFLQINNLRNEDTATYFCARHYDYGGFPYWGQGTLVTVSAAKTTPPSVYPLAPGSAAQTNSMVTLGCLVKGYFPEPVTVTWNSGSLSSGVHTFPAVLQSDLYTLSSSVTVPSSTWPSETVTCNVAHPASSTKVDKKIVPRDCGCKPCICTVPEVSSVFIFPPKPKDVLTITLTPKVTCVVVDISKDDPEVQFSWFVDDVEVHTAQTQPREEQFNSTFRSVSELPIMHQDWLNGKEFKCRVNSAAFPAPIEKTISKTKGRPKAPQVYTIPPPKEQMAKDKVSLTCMITDFFPEDITVEWQWNGQPAENYKNTQPIMDTDGSYFVYSKLNVQKSNWEAGNTFTCSVLHEGLHNHHTEKSLSHSPGK
light: DIQMTQSPASLSASVGETVTITCRASGNVHNYLAWYQQKQGKSPQLLVYTAKTLADGVPSRFSGSGSGTQYSLKINSLQPEDFGTYYCQHFWSNPWTFGGGTKLEIKRADAAPTVSIFPPSSEQLTSGGASVVCFLNNFYPKDINVKWKIDGSERQNGVLNSWTDQDSKDSTYSMSSTLTLTKDEYERHNSYTCEATHKTSTSPIVKSFNRNEC
notes: Mouse IgG1 kappa; Leader 1-19 (heavy) and 1-20 (light) are stated and left out; 1F5 is named an AM4 clone; also called AM4 MIL-38; AM4 1F5

binding result [6]: binds
B4: scFv MIL-38 (scFv)
scFv: QIQLVQSGPELKKPGETVKISCKASGYAFTDYSMNWVKQAPGKGLRWMGWINTETGEPTYTDDFKGRFAFSLETSASTAFLQINNLRNEDTATYFCARHYDYGGFPYWGQGTLVTVSSGGGGSGGGGSGGGGSDIQMTQSPASLSASVGETVTITCRASGNVHNYLAWYQQKQGKSPQLLVYTAKTLADGVPSRFSGSGSGTQYSLKINSLQPEDFGTYYCQHFWSNPWTFGGGTKLEIKHHHHHHC
modifications: CY5 fluorophor label (site not stated)
notes: VH (20-137), gly/ser linker (138-152), VL (153-259), hexa-His tag (260-265), C-terminal cysteine (266); Leader 1-19 is stated and left out; also called MIL-38 scFv; scFv MIL-38 construct
